Measurements reported in JPH09322796A (dated 1997).

B1: マウス抗ヒトFasモノクローナル抗体CH11 (mouse anti-human Fas monoclonal antibody CH11, purified from hybridoma culture supernatant) (antibody, mouse IgM)
heavy: EVQLQQSGPELVKPGASVKISCKASGYTFTDYNMHWVKQSHGKSLEWIGYIYPYNGGTGYNQKFKSKATLTVDNSSSTAYMELRSLTSEDSAVYYCARSYYAMDYWGQGTSVTVSSESQSFPNVFPLVSCESPLSDKNLVAMGCLARDFLPSTISFTWNYQNNTEVIQGIRTFPTLRTGGKYLATSQVLLSPKSILEGSDEYLVCKIHYGGKNRDLHVPIPAVAEMNPNVNVFVPPRDGFSGPAPRKSKLICEATNFTPKPITVSWLKDGKLVESGFTTDPVTIENKGSTPQTYKVISTLTISEIDWLNLNVYTCRVDHRGLTFLKNVSSTCAASPSTDILTFTIPPSFADIFLSKSANLTCLVSNLATYETLNISWASQSGEPLETKIKIMESHPNGTFSAKGVASVCVEDWNNRKEFVCTVTHRDLPSPQKKFISKPNEVHKHPPAVYLLPPAREQLNLRESATVTCLVKGFSPADISVQWLQRGQLLPQEKYVTSAPMPEPGAPGFYFTHSILTVTEEEWNSGETYTCVVGHEALPHLVTERTVDKSTGKPTLYNVSLIMSDTGGTCY
light: DVVMTQSPLSLPVSLGDQASISCRSSKSLVHSNGNTYLHWYLQKPGQSPKLLIYKVSNRFSGVPDRFSGSGSGTDFTLKISRVEAEDLGVYFCSQSTHVPPAFGGGTKLEIKRADAAPTVSIFPPSSEQLTSGGASVVCFLNNFYPKDINVKWKIDGSERQNGVLNSWTDQDSKDSTYSMSSTLTLTKDEYERHNSYTCEATHKTSTSPIVKSFNRNEC
chain: DDEATILADNKCMCTRVTSRIIPSTEDPNEDIVERNIRIVVPLNNRENISDPTSPLRRNFVYHLSDVCKKCDPVEVELEDQVVTATQSNICNEDDGVPETCYMYDRNKCYTTMVPLRYHGETKMVQAALTPDSCYPD
B2: pLEX004のみで形質転換したCOS−1細胞の培養上清[C] (CH11 L chain expressed alone) (other)
light: B1 light
B3: pHEX126のみで形質転換したCOS−1細胞の培養上清[B] (CH11 H chain expressed alone) (other)
heavy: B1 heavy
B4: 上清[F](pHEX126、pLEX004+pJEX004)に含まれる生産物 (recombinant CH11 H chain + L chain + J chain, COS-1 culture supernatant) (antibody)
heavy: B1 heavy
light: B1 light
chain: B1 chain
B5: pJEX004のみで形質転換したCOS−1細胞の培養上清[D] (CH11 J chain expressed alone) (other)
chain: B1 chain
B6: 上清[E](pHEX126+pLEX004)に含まれる生産物 (recombinant CH11 H chain + L chain without J chain, COS-1 culture supernatant) (antibody)
heavy: B1 heavy
light: B1 light

target: ヒトFas抗原の細胞外領域とマウスインターロイキン3受容体の細胞外領域との融合タンパク質 (fusion of human Fas extracellular region and mouse IL-3 receptor extracellular region, from phFas-AIC2) (human; mouse) (UniProt P25445); experiment: ELISA, COS-1 supernatant with human Fas-mouse IL-3 receptor fusion coated, detection with peroxidase-labelled rat anti-mouse IgM; PBS blank 0.104

| Binder | OD 405 −OD 492 |
| --- | --- |
| B1 | 0.445 |
| B2 | 0.135 |
| B3 | 0.109 |
| B4 | 0.202 |
| B5 | 0.107 |
| B6 | 0.33 |

target: T1, Fas抗原 on the human lymphocyte cell line HPB−ALL (human, UniProt P25445 26-335); experiment: cell-based or functional assay
T1 sequence (looked up): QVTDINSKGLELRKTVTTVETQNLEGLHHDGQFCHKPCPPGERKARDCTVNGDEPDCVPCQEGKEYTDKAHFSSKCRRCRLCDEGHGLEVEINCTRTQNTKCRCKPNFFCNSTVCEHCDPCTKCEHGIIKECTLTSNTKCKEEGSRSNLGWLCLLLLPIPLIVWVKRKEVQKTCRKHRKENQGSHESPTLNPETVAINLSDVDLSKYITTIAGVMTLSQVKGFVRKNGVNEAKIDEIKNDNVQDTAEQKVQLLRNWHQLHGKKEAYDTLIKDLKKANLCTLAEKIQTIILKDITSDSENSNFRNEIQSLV

| Binder | ED 50 (ng/ml) (MTT assay, HPB-ALL cells)) | OD 590 −OD 620 (MTT assay, HPB-ALL cells, 12 h; higher = more living cells) | cytotoxic activity relative to CH11 or to the product of supernatant [F] |
| --- | --- | --- | --- |
| B1 | 21.2 ng/mL | – | – |
| B2 | – | 0.887 | – |
| B3 | – | 0.876 | – |
| B4 | 22.9 ng/mL | 0.242 | – |
| B5 | – | 0.883 | – |
| B6 | 4.5 ng/mL | 0.176 | ~5 fold |
